In patent US20190119345A1 (published 2019):

Target: T1, murine NKG2D on NK cells / splenocytes (mouse, UniProt O54709 1-232)
T1 construct: whole, on cells; also called NKG2D receptor
T1 sequence: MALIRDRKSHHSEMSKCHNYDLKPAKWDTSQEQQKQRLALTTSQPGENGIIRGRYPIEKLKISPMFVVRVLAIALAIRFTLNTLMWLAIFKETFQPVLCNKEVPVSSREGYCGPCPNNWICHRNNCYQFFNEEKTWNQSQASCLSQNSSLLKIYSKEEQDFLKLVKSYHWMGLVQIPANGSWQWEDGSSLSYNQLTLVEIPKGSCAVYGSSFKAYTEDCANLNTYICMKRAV
Assay: flow cytometry, fluorescently labeled construct on bulk splenocytes at 37° C.

B1: OMCP-mutIL2 (R38A, F42K, C125S IL2-OMCP construct) (other)
chain: HKLAFNFNLEINGSDTHSTVDVYLDDSQIITFDGKDIRPTIPFMIGDEIFLPFYKNVFSEFFSLFRRVPTSTPYEDLTYFYECDYTDNKSTFDQFYLYNGEEYTVKTQEATNKNMWLTTSEFRLKKWFDGEDCIMHLRSLVRKMEDSKRNTGGTGSSGSSDYKDDDDKHHHHHHHHGSSGSSAPTSSSTKKTQLQLEHLLLDLQMILNGINNYKNPKLTAMLTKKFYMPKKATELKHLQCLEEELKPLEEVLNLAQSKNFHLRPRDLISNINVIVLELKGSETTFMCEYADETATIVEFLNRWITFSQSIISTLT
notes: also called OMCP-mutant IL2; OMCP-IL2 construct
binding result: binds
